According to US10370642B2, “Hematopoietic progenitor cell populations having affinity for E-selectin / L-selectin” (priority 2000, dated 2019):

T1: L-selectin (Rattus norvegicus, UniProt P30836)
T1 construct: L-selectin naturally expressed on leukocytes; endogenous in cells; host or cells: lymphocytes (rat thoracic duct lymphocytes; human PBMC also prepared)
T1 sequence (P30836 39-372): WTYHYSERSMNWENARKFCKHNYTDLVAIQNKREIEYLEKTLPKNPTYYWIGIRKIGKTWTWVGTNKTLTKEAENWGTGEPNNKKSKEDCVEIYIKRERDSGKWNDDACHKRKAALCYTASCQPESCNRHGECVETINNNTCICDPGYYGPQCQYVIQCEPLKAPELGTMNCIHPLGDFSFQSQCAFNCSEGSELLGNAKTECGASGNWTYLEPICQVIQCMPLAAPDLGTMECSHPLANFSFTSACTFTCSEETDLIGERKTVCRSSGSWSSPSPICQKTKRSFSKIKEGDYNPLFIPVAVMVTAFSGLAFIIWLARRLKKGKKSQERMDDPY

T2: E-selectin (Homo sapiens, UniProt P16581)
T2 construct: stably transfected with full-length cDNA encoding human E-selectin; expressed in transfected cells
T2 sequence (P16581 22-610): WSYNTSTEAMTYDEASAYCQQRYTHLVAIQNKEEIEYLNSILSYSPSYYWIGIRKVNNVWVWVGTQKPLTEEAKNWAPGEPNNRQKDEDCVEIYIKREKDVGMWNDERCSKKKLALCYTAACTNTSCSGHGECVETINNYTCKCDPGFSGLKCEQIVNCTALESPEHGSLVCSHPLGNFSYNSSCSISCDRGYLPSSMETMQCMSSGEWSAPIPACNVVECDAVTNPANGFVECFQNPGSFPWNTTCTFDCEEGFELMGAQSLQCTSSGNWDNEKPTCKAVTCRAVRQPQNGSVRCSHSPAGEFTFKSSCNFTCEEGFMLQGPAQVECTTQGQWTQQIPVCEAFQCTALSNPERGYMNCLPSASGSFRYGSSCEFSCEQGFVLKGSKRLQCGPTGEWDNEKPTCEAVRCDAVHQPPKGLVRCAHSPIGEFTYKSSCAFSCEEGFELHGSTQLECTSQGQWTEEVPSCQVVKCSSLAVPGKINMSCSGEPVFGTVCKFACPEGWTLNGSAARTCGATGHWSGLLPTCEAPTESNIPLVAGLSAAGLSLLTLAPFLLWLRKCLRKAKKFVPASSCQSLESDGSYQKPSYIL


Tests used:
KG1a cells = test: CHO-E cell rolling on glutaraldehyde-fixed KG1a monolayers; assay type: cell-based, human; conditions: 2.8 dynes/cm^2; EDTA 5 mM; HECA 452 50 μg/ml
From the text: (§1) E-selectin-mediated adhesive interactions, under defined shear stress, were examined between hematopoietic cell monolayers and suspensions of CHO-E (Chinese hamster ovary cells stably transfected with full-length cDNA encoding human E-selectin) in flow. CHO-E and empty vector constructs (CHO-Mock) were maintained in MEM 10% FBS/1% Penicillin/Streptomycin (Life Technologies, Inc.) and HAM's F-12 (Cellgro, Inc.)/5% FCS/1% Penicillin/Streptomycin, respectively. CHO-E cell tethering and rolling on hematopoietic cell monolayers was visualized by video microscopy in real time using the parallel-plate flow chamber. […] To prepare hematopoietic cell monolayers>90% confluent, suspensions of cells (KG1a, HL60, K562, or RPMI 8402) at 2×10^6/ml RPMI1640 without NaBicarbonate/2% FBS were cytocentrifuged in […] plates at 5×10^6/well and then fixed in 3% glutaraldehyde. Reactive aldehyde groups were blocked in 0.2M lysine, and plated cells were suspended H/H/Ca++. […] The number of CHO-E/Mock cell rolling on each monolayer was measured in one frame of five independent fields under 10× magnification from multiple experiments. A minimum of 3 experiments was performed and results were expressed as the mean±standard deviation.

HL60 cells = test: CHO-E cell rolling on glutaraldehyde-fixed HL60 monolayers; assay type: cell-based, human; conditions: 2.8 dynes/cm^2; EDTA 5 mM; HECA 452 50 μg/ml
From the text: as §1

L-selectin = target: T1, L-selectin; test: Stamper-Woodruff assay, lymphocyte adherence to immunoprecipitated CD44 and PSGL-1; assay type: cell-based; conditions: 80 rpm; for Mean Number of Bound Lymphocytes: 0.75 μg/spot (PSGL-1 1 μg/spot), 4° C., 100× mag.
Procedure: These protein spots were then fixed in 3% glutaraldehyde, unreactive aldehyde groups were blocked in 0.2M lysine and slides were kept in RPMI-1640 without NaBicarbonate/2% FBS until ready for testing. Lymphocytes (10^7/ml RPMI-1640 without NaBicarbonate/5% FBS) were overlayed onto these fixed immunoprecipitates and incubated on an orbital shaker at 80 rpm for 30 min. at 4° C. The number of adherent lymphocytes was quantified by light microscopy using an ocular grid under 100× magnification (a minimum of 5 fields/slide, 2 slides/experiment, and 3 separate experiments). Data were presented as the mean number of bound lymphocytes±standard deviation. KG1a CD34 and L-selectin control immunoprecipitates were also tested in this manner. To verify the dependence for sialic acid, glutaraldehyde-fixed spots were treated with Vibrio cholerae neuraminidase (0.1 U/ml RPMI-1640 without NaBicarbonate/2% FBS for lhr at 37° C.).
Immunoaffinity purified material (0.75-3 μg/spot) was spotted onto glass slides for analyses in the Stamper-Woodruff assay (See below for assay description). For autoradiographic analysis of immunoprecipitated [^35S]-methionine-radiolabeled CD44 and PSGL-1, immunoprecipitates were spotted onto glass slides, allowed to dry and exposed Kodak BioMax-MR film for 12 h at −80° C. Densitometric analysis (optical density) of the autoradiograms was performed with a Hewlett-Packard Scanj et 5200C scanner and NIH Image processing and analysis program.

E-selectin [1] = target: T2, E-selectin; test: Blot rolling assay with CHO-E cells; assay type: cell-based; conditions: immunoprecipitated CD44 on Western blot; 3.8 dynes/cm^2
Procedure: The blot rolling assay was performed as previously described (Dimitroff et al., 2000). Briefly, CHO-E, CHO—P or CHO-Mock transfectants were isolated as described above, washed twice in HBSS and suspended at 10^7/ml in HBSS/10 mM HEPES/2mMCaCl2 (H/H/Ca++)/10% glycerol. Western blots of HPC membrane preparations stained with HECA-452 were rendered transparent by incubating them in H/H/Ca++/10% glycerol. The blots were then placed in the parallel-plate flow chamber, and CHO transfectants (2×10^6/ml) were perfused into the chamber. After allowing the cells to come in contact with the blotting membrane, the flow rate was adjusted to exert a shear stress of 3.8 dynes/cm^2. The viscosity of 10% glycerol adhesion assay medium was considered in the calculation of shear stress values. The number of cells rolling on and between each immunostained banding region was quantified under 100× magnification within each field of view on the video monitor using molecular weight markers (Kaleidoscope Molecular Weight Markers, Bio-Rad Lab.; See Blue® from Novex, Inc.) as guides to help align and visualize the apparent molecular weights of the proteins of interest. A minimum of 3 experiments was performed and results were expressed as the mean±SD of cell rolling/field at 100× magnification.

E-selectin [2] = target: T2, E-selectin; test: CHO-E cell rolling on immobilized immunoprecipitates, parallel-plate flow chamber; assay type: cell-based; conditions: immunoprecipitates on plastic; 2.8 dynes/cm^2
Procedure: CD44 was immunoprecipitated from untreated cell lysates or from cell lysates treated with N-glycosidase-F (0.8 U/ml) Vibrio cholerae neuraminidase (0.1 U/ml) or a-L-fucosidase (80 mU/ml), and PSGL-1 was immunoprecipitated from untreated cell lysates as previously described (Sackstein and Dimitroff, 2000; Dimitroff et al., 2000).
CD44 or PSGL-1 immunoprecipitates were spotted onto plastic petri dishes, fixed in 3% glutaraldehyde and incubated in 0.2M lysine to block unreactive aldehyde groups, and then non-specific binding was prevented by incubating in 100% FBS for 1 hr at RT. Fixed spots were also treated with Vibrio cholerae neuraminidase (0.1 U/ml assay medium), which was overlaid onto the spots and incubated at 37° C. for 1 hr. […] The flow rate was then increased to achieve a shear stress of 2.8 dynes/cm^2. The frequency of cells rolling per 100× magnification field was determined, and data were expressed as the mean±standard deviation of 8 fields visualized from a minimum of 3 experiments.

Molecule | Mean Number of Bound Lymphocytes (L-selectin) | E-selectin ligand activity (CHO-E cell rolling) (E-selectin [2]) | also measured
O=C(O)CN(CCN(CC(=O)O)CC(=O)O)CC(=O)O [EDTA] |  |  | CHO-E cell rolling / E-selectin ligand activity of KG1a cells (KG1a cells): completely inhibited; CHO-E cell rolling / E-selectin ligand activity of HL60 cells (HL60 cells): completely inhibited
AML (M1) CD44: CD44 (HCELL) immunoprecipitated from blasts of an AML without maturation (M1) | 425.3 |  | fold higher mean number of lymphocytes bound to CD44 than to PSGL-1 (L-selectin; p<0.001): 3 fold
AML (M1) N-glycosidase-F CD44: N-glycosidase-F-treated CD44 from AML (M1) blasts | 23.4 |  | 
BMEC-1 CD44: CD44 from human BM endothelial cell line BMEC-1 |  |  | E-selectin ligand activity (CHO-E cell rolling) in blot rolling assay (E-selectin [1]): did not possess any E-selectin ligand activity
HL60 CD44: CD44 immunoprecipitated from HL60 cells | 6.5 | did not support any CHO-E cell rolling | 
K562 CD44: CD44 isolated from K562 cells |  | did not support any CHO-E cell rolling | 
RPMI 8402 CD44: CD44 isolated from RPMI 8402 cells |  | did not support any CHO-E cell rolling | 
a-L-fucosidase-treated KG1a CD44: CD44 immunoprecipitated from a-L-fucosidase-treated KG1a lysate |  | abrogated CHO-E cell rolling | 
CD34 (Molecular Control): CD34 (QBend-10) immunoprecipitated from KG1a cells, negative molecular control (protein) SLDNNGTATPELPTQGTFSNVSTNVSYQETTTPSTLGSTSLHPVSQHGNEATTNITETTVKFTSTSVITSVYGNTNSSVQSQTSVISTVFTTPANVSTPETTLKPSLSPGNVSDLSTTSTSLATSPTKPYTSSSPILSDIKAEIKCSGIREVKLTQGICLEQNKTSSCAEFKKDRGEGLARVLCGEEQADADAGAQVCSLLLAQSEVRPQCLLLVLANRTEISSKLQLMKKHQSDLKKLGILDFTEQDVASHQSYSQKTLIALVTSGALLAVLGITGYFLMNRRSWSPTGERLGEDPYYTENGGGQGYSSGPGTSPEAQGKASVNRGAQENGTGQATSRNGHSARQHVVADTEL | 4.0 |  | 
L-selectin (Molecular Control): L-selectin (LAM 1-3) immunoprecipitated from KG1a cells, negative molecular control (protein) WTYHYSEKPMNWQRARRFCRDNYTDLVAIQNKAEIEYLEKTLPFSRSYYWIGIRKIGGIWTWVGTNKSLTEEAENWGDGEPNNKKNKEDCVEIYIKRNKDAGKWNDDACHKLKAALCYTASCQPWSCSGHGECVEIINNYTCNCDVGYYGPQCQFVIQCEPLEAPELGTMDCTHPLGNFSFSSQCAFSCSEGTNLTGIEETTCGPFGNWSSPEPTCQVIQCEPLSAPDLGIMNCSHPLASFSFTSACTFICSEGTELIGKKKTICESSGIWSNPSPICQKLDKSFSMIKEGDYNPLFIPVAVMVTAFSGLAFIIWLARRLKKGKKSKRSMNDPY | 0.5 |  | 
HL60 PSGL-1: PSGL-1 immunoprecipitated from HL60 cells (protein) QATEYEYLDYDFLPETEPPEMLRNSTDTTPLTGPGTPESTTVEPAARRSTGLDAGGAVTELTTELANMGNLSTDSAAMEIQTTQPAATEAQTTQPVPTEAQTTPLAATEAQTTRLTATEAQTTPLAATEAQTTPPAATEAQTTQPTGLEAQTTAPAAMEAQTTAPAAMEAQTTPPAAMEAQTTQTTAMEAQTTAPEATEAQTTQPTATEAQTTPLAAMEALSTEPSATEALSMEPTTKRGLFIPFSVSSVTHKGIPMAASNLSVNYPVGAPDHISVKQCLLAILILALVATIFFVCTVVLAVRLSRKGHMYPVRNYSPTEMVCISSLLPDGGEGPSATANGGLSKAKSPGLTPEPREDREGDDLTLHSFLP | 11.0 |  | 
AML (M1) PSGL-1: PSGL-1 immunoprecipitated from AML (M1) blasts (protein) QATEYEYLDYDFLPETEPPEMLRNSTDTTPLTGPGTPESTTVEPAARRSTGLDAGGAVTELTTELANMGNLSTDSAAMEIQTTQPAATEAQTTQPVPTEAQTTPLAATEAQTTRLTATEAQTTPLAATEAQTTPPAATEAQTTQPTGLEAQTTAPAAMEAQTTAPAAMEAQTTPPAAMEAQTTQTTAMEAQTTAPEATEAQTTQPTATEAQTTPLAAMEALSTEPSATEALSMEPTTKRGLFIPFSVSSVTHKGIPMAASNLSVNYPVGAPDHISVKQCLLAILILALVATIFFVCTVVLAVRLSRKGHMYPVRNYSPTEMVCISSLLPDGGEGPSATANGGLSKAKSPGLTPEPREDREGDDLTLHSFLP | 141.5 |  | 
